Data taken from the domain aggregation screens of Martell et al. (2025).

Test: soluble fraction after stress (log2 fold change); higher = more stays soluble; pooled small domains, quantitative proteomics
Conditions: stress: 75 degC
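Further: 20 min heating vs room temperature control held 20 min.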

First: HMKWIEILKSKDGNYALLQDEKDTQFVVASGYNPDAAEDQKWGHGSYFIYWNNKENKAEMLMNAIDLFRYR
Second: HMKYEFEFPYWSNKEAKHMIVTINYPNGTRATASIQDNDGSNPDYKRIMEEFGEEQIDANTEEGLKRR
The “soluble fraction (log2)” value of the first is lower: -2.21 for the first, -0.0803 for the second.

“HMKYEGEDEYYASLVTEKIAAIGTVTEESEDAIKEARAAYDALTSAQKKLVTNYDVLDEAEK” and “HMKYGPSTVATLKVARLGEMGAFLDAETGDTSDDILLHKTQQTAPVKVGDEVEVFLYLDPKRRLTASMRV” are within 0.2 log units of each other in “soluble fraction (log2)” value: -0.144 for the first, -0.118 for the second.

Going from “HMKYGPSTVAVLTVVRESEMGAFLDAETGRTNDDILLHKTQQTEPVHIGDQVKVFLYLDPKHRLTASMRVP” to “HMKYNETEFKNLVAKLYNGEIEIVGKFTGLSYPILVKDKYGIMLSQKANLILNYRPTINIALNKTEYAMN”, the “soluble fraction (log2)” value rises from -1.03 to -0.289.

First: HMKYSELLLEIILQSKEHPTAEQIFIEAKKRNPKIVQATVYNNLKNLLAQGRVIRISNPGQPDRYDNT
Second: HMKYVDYYATLGVARDADLATITKAYRKLARQTHPDLNQGADNEARFKAAAEAYATLKHPEKRAAYDELGQ
The “soluble fraction (log2)” value of the first is lower: -1.83 for the first, 0.0183 for the second.

Going from “HMKYWTISDLYSKLEEDQVELGAFSEDSNKVTVLDRQGYEHVIKILSSDVPALTELFRKKKVRFAVAG” to “HMKYYIYQGVGASGELTKIAEVTDQKTYTVTGLQAKTTYRFAVSSYNGLRESTKSNIVTVTT”, the “soluble fraction (log2)” value rises from -1.3 to -0.134.

Going from “HMLAAAVVVYATDKVNVRAEASETADVIGQLEAGSQTTRLEDKDGWSRIDYSNGTQGYMKSEFLSTEAPT” to “HMLADEPTGALDSKTSVQIMALLTEIAQDRLVIMVTHNPELADEYATRIVNLRDGVISDDSDPFNP”, the “soluble fraction (log2)” value falls from 0.347 to -0.0933.

First: HMLAEEAFNKQAATAGYVYRDGSYHPAASVAQYDAMPRNYRTNTMAQELSRSQVESQLQQSQ
Second: HMLAGKTYEVQTESGGKWTLVASYNVKSQAIQQAQALLESHKYSGVKVIAESDRKGEEVIFNEQSEVT
The “soluble fraction (log2)” value of the first is higher: 0.752 for the first, -0.0725 for the second.

First: HMLALKSGQVVVGTIIRRLDNTTAMLRIGNQLFETSFAKGLPKSNHILLRYDAMQGNRFIFTMVE
Second: HMLANLNKELQNDAALLKQKAQGNSNLLAKIQDVEQQMKQVNTSSASDEAKAKELQTLQRKLTAYKKALA
The “soluble fraction (log2)” value of the first is lower: -0.635 for the first, -0.0577 for the second.

“HMLAVSVDKDGKVYIQDSETAVDAVTAKLRAISGNNSEIRIFVRGDADVNYGRIMEIMGVINAAGFRKVAL” and “HMLDEIAGQKVRVLEEINNSEGTGKVMYRGVEWMARSVDDAVMAKDSIVTVQSISGVKLMVT” are within 0.2 log units of each other in “soluble fraction (log2)” value: -0.111 for the first, -0.184 for the second.

Compared with “HMLDEKAVRQYLLNTLENSEIKMDRQAIDLFLRLTDLDLSKMMRELQKILLYGQEQEVITVKEIEQ”, “HMLDGFEVGMTVMKKSGTEIGFTGWPSFADKDELPIIERIDTSDSTLLLKFKDMSWWIKASLVEPS” is lower in “soluble fraction (log2)” value: -0.779 for the first, -3.55 for the second.

Compared with “HMLDLPEISARIMEVFETKDRATISELSKLTGTNINTIKKHLSSLVENNYLIKHGKTRGAWYTKST”, “HMLDLVSIGKRIKAERQKNGLTQEALAERIEVSAHYVYELERGLKAMSVPILLRMSEVLHTSTDYLLF” is lower in “soluble fraction (log2)” value: -0.126 for the first, -3.34 for the second.

First: HMLDNHPQSKKIRALWLEMAAAGVVRDSSEQALALWVKRETGISALRWLSNEQASSVIEKLKKWQRRAAG
Second: HMLDPKVFVGKAGINEGIAKLLLQAFDKADLVKVRFTAERDVMETQMQELARLTGSEVIGNVGRTATF
The “soluble fraction (log2)” value of the first is lower: -1.47 for the first, -0.0412 for the second.

Going from “HMLEAMDSDEAAKVIEQIVNERADFVRSKGMGAIGPLMGPVMGALRGKVDGKQANELLTAAIKKLL” to “HMLEASVYTAEKSGDRLDAFLAEQAGITRSYAQKLIEGGQVTLGGVVPKKNYKLSAGEQVELILPEN”, the “soluble fraction (log2)” value falls from 0.334 to 0.0466.

Compared with “HMLEKVLDNHIHKLRLQHKISQQELADAIGVSRKTISTVETGRFTPSVVIALKIAAHFSVSVEQVFTL”, “HMLEPEVLDLIGQVKSVHHFSVTQSHQLEKLVRHAHTLGFEIAELKSLLASSPNAKSLLSSLDQKLEPLRM” is lower in “soluble fraction (log2)” value: -1.14 for the first, -1.86 for the second.

First: HMLEQEQFESKLLKAINNINETQRIAFLMHRIDGKKYAEIASELNISVKAVEKRIHLALIELKKEIENF
Second: HMLEQISDINILSGYAKEVIAENPKTVSDYLSGKAAAFQALVGQVMKKTGGRGNPVIIQEILKRLIHKK
The “soluble fraction (log2)” value of the first is lower: -0.747 for the first, -0.0597 for the second.

First: HMLERKPVLVASRDLPALAVIGKDDLSVELLRTAPVGSYDRPEALLGKRVWVAVPAGSILSAATLEP
Second: HMLERPLKLKSHYVSTIYEKVAVQYSEGEEKKSVMGTLIEVNQDTIVLDDRGTIIEIPFKSITRAKTVF
The “soluble fraction (log2)” value of the first is higher: -0.366 for the first, -3.6 for the second.

First: HMLETLVYPNPTTDKILLSSPVDYHLFSLKGELVLEGRGSSIEVSQLSKGVYFLNTKTQTFKIIK
Second: HMLGARSLNEAVARNLPQILAKYQLIHIAGKNGFNPELQGRGYVQYEYVDTELKDLMALADIVVSR
The “soluble fraction (log2)” value of the first is higher: -0.62 for the first, -1.52 for the second.

Compared with “HMLGERIKQIRKQKKMTQTDVATGIITKSMLSMIENGKATPSLPALQAIARRLQVTVEELML”, “HMLGFELVGIRGNNPESTIIILERDDYRLVEQGQNINSSVIFSHIDGSRAYFFDGQTYTFLDI” is lower in “soluble fraction (log2)” value: -2.55 for the first, -2.78 for the second.

Compared with “HMLGITEGSLVRVIRSPNFGKIGTVAELPAELRMMESETMVRIAIVEIEGTNFEIPRSNLEVLET”, “HMLGKEVVRAYNISYAIDDKGSLQGDLTAALTGLIPLSKPPVLDQRNRSLYVTATPEQHKDVAALLAKL” is higher in “soluble fraction (log2)” value: -1.6 for the first, -0.238 for the second.

With “HMLGSGSKEQQLVILNNILERQVQAFNLQGGQEYPMVTLKNFYNTLSKMIENAGLKNVENYFVNPDVGKQM” the “soluble fraction (log2)” value was -0.392.
